Assay results as given in patent US20030054411A1, “GPR motifs and uses thereof” (priority 2001, published 2003).

B1: AGS3: Activator of G-protein Signalling 3; bioactive 74 amino acid fragment isolated in yeast screen, tested as GST fusion (protein)
chain: MLIKYQSSRIDDQRCPPPDVLPRGPTMPDEDFFSLIQRVQAKRMDEQRVDLAGSPDQEASGLPDPRQQCPPGAS
modifications: left off: a dimerising Fc or GST

Columns and labels:
brain Gβγ = assay: GST fusion protein interaction with purified brain Gβγ; assay type: binding, bovine; settings: GST fusion protein ~300 nM, Gβγ 40 nM
Text: (A) Bioactivity of cDNA #37 and 53 in yeast strains expressing different Gα subunits. The Gpa1, Giα2Gpa1(1-41), Giα3Gpa1(1-41) and Gα16Gpa1(1-41) yeast strains expressed similar amounts of G-protein as determined by immunoblotting with Gpa1-specific antisera. Each series of experiments include data obtained in the absence of Gα to indicate the signal obtained when the action of Gβγ is not limited by reformation of heterotrimer. Data are presented as the mean±S.E.M of three experiments with duplicate determinations. (B) Interaction of AGS2 and AGS3 with G-proteins. AGS2 and the bioactive AGS3 peptide (74 amino acids) beginning at the first in frame methionine were generated as GST-fusion proteins in bacteria and purified using a glutathione affinity matrix. AGS2 and AGS3 GST fusion proteins were incubated with G-protein subunits (Gα=60-80 nM, Gβγ=40 nM, fusion protein=˜300 nM, total volume=250 ul) for 12 hrs at 4° C. GDP=10 uM. GTPγS=10 uM plus 5 mM MgCl2. […] Giα2 was generated in Sf9 cells as an amino terminal his6-tagged protein and was detected on membrane transfers using anti-Xpress antisera (Invitrogen). Bovine brain Gβγ was detected on membrane transfers with Gβ antisera. […]
(§1) Immunoblotting and G-protein interaction assays. […] Bound proteins were detected by immunoblotting membrane transfers with specific antisera. […]

Giα2 = molecular target: T1, Giα2 (Homo sapiens, UniProt P04899); assay: GST fusion protein interaction with purified Giα2; assay type: binding; settings: for interaction with Giα2: GST fusion protein ~300 nM, Gα 60-80 nM
T1 construct: made in house; host or cells: Sf9 insect cells
T1 sequence (P04899 whole entry, the tested form may be a part): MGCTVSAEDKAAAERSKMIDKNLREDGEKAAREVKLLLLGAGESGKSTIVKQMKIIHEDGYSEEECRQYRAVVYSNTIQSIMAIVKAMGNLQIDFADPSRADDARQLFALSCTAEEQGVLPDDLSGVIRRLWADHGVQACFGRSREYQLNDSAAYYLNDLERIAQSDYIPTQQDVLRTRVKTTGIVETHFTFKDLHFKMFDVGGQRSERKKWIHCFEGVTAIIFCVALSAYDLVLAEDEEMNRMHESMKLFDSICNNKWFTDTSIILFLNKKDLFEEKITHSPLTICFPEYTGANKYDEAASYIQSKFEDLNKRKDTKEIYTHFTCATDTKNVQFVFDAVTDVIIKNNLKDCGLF
Text: (A) Bioactivity of cDNA #37 and 53 in yeast strains expressing different Gα subunits. The Gpa1, Giα2Gpa1(1-41), Giα3Gpa1(1-41) and Gα16Gpa1(1-41) yeast strains expressed similar amounts of G-protein as determined by immunoblotting with Gpa1-specific antisera. Each series of experiments include data obtained in the absence of Gα to indicate the signal obtained when the action of Gβγ is not limited by reformation of heterotrimer. Data are presented as the mean±S.E.M of three experiments with duplicate determinations. (B) Interaction of AGS2 and AGS3 with G-proteins. AGS2 and the bioactive AGS3 peptide (74 amino acids) beginning at the first in frame methionine were generated as GST-fusion proteins in bacteria and purified using a glutathione affinity matrix. AGS2 and AGS3 GST fusion proteins were incubated with G-protein subunits (Gα=60-80 nM, Gβγ=40 nM, fusion protein=˜300 nM, total volume=250 ul) for 12 hrs at 4° C. GDP=10 uM. GTPγS=10 uM plus 5 mM MgCl2. Proteins were then adsorbed to glutathione matrix and retained G-protein subunits identified by immunoblotting following gel electrophoresis. Giα2 was generated in Sf9 cells as an amino terminal his6-tagged protein and was detected on membrane transfers using anti-Xpress antisera (Invitrogen). Bovine brain Gβγ was detected on membrane transfers with Gβ antisera. Input refers to 20 ul of the incubation mixture. The results presented are representative of four separate experiments. […] C) Effect of G204A Giα2 substitution and RGS4 on the functionality of AGS proteins. The G204A Giα2 yeast strain and the system used for over expression of RGS4 are described in detail in reference 5. Protein expression was confirmed by immunoblotting. AGS 1 was discovered in a similar screen using a human liver cDNA library (5, 7). WT—wild type strain CY1316/1183 containing Giα2 as described for the original yeast screen. RGS4 was overexpressed in the CY1316/1183 yeast strain. […]
as §1

[1] = tested on: Giα3 in DDT1-MF2 cell lysates; assay: GST-AGS3 interaction with endogenous Giα3 in cell lysates; assay type: binding; settings: 30 uM GDP or GTPγS
Text: A) Sequence of full length rat AGS3. The shaded and overlined sequences represent the tetratricopeptide repeat motif and a repeated segment of amino acids (I-IV), respectively, as discussed in the text. The underlined amino acids indicate the fragment (cDNA #53) isolated in the original yeast screen. B) The four repeat domains in the carboxyl terminus half of AGS3, human LGN, the predicted C. elegans protein and related sequences identified by the motif search program MEME were aligned and used to define a consensus sequence as described in the Examples. Right panel—Interaction of wild type AGS3 and AGS3 mutants with Giα2 in mammalian cell extracts. The AGS3 eDNA isolated in the yeast screen and shown to interact with Gα subunits (FIG. 2B) was modified by site-directed mutagenesis to disrupt conserved residues within the GPR motif. The number of the amino acids altered in the mutant constructs (F8R, Q15A and R23F) refers to their position in the sequence found in the left panel aligning the conserved domains. […] Giα subunits were detected on membrane transfers with the Giα3 antibody and Gβ was detected with an amino terminus antibody. […]
as §1

Row | Molecule | interaction with brain Gβγ (brain Gβγ) | interaction with Giα2 (Giα2) | nucleotide preference of interaction with Gα in crude cell lysate [1] | preferred nucleotide-bound conformation of Gα (Giα2; GDP 10 uM versus GTPγS 10 uM)
1 | AGS2: Activator of G-protein Signalling 2, protein identical to mouse Tctex1, isolated from NG108-15 cDNA library | directly bound | did not interact | – | –
2 | B1 | did not interact | specifically bound | preferentially interacted with GαGDP versus GTPγS | preferred the GDP bound conformation
